# Measured values from IntAct's records for PubMed 15447654.
# B1: Adagio protein 1 (Arabidopsis thaliana (Mouse-ear cress)), Q94BT6 (parent)
# chain: MEWDSGSDLSADDASSLADDEEGGLFPGGGPIPYPVGNLLHTAPCGFVVTDAVEPDQPIIYVNTVFEMVTGYRAEEVLGGNCRFLQCRGPFAKRRHPLVDSMVVSEIRKCIDEGIEFQGELLNFRKDGSPLMNRLRLTPIYGDDDTITHIIGIQFFIETDIDLGPVLGSSTKEKSIDGIYSALAAGERNVSRGMCGLFQLSDEVVSMKILSRLTPRDVASVSSVCRRLYVLTKNEDLWRRVCQNAWGSETTRVLETVPGAKRLGWGRLARELTTLEAAAWRKLSVGGSVEPSRCNFSACAVGNRVVLFGGEGVNMQPMNDTFVLDLNSDYPEWQHVKVSSPPPGRWGHTLTCVNGSNLVVFGGCGQQGLLNDVFVLNLDAKPPTWREISGLAPPLPRSWHSSCTLDGTKLIVSGGCADSGVLLSDTFLLDLSIEKPVWREIPAAWTPPSRLGHTLSVYGGRKILMFGGLAKSGPLKFRSSDVFTMDLSEEEPCWRCVTGSGMPGAGNPGGVAPPPRLDHVAVNLPGGRILIFGGSVAGLHSASQLYLLDPTEDKPTWRILNIPGRPPRFAWGHGTCVVGGTRAIVLGGQTGEEWMLSELHELSLASYLT
# Variants of: B1
# Details: with skp1a_arath SKP1A
row,Variant,effect of a mutation on the interaction
1,L213A,decreasing interaction
2,L200A,decreasing interaction
